Assay [1] concerns the target T1, rhesus recombinant CD70 (FLAG-TNC-rhesus CD70) (rhesus).
T1 construct: also called rhesus Flag-TNC-CD70
Put plainly: Biacore; rhesus recombinant CD70 on chip; Fab injected.

The target of assay [2] is T2, recombinant human CD70 (Flag-TNC-CD70) (human, UniProt P32970 39-193).
T2 construct: extracellular domain; Captured by anti-Flag mAb in ELISA; as 'recombinant human CD70' immobilised on Biacore CM5 chips; TNC is for trimerisation; also called recombinant CD70; human recombinant CD70; not shown: Flag tag and TNC trimerisation domain
T2 sequence (looked up): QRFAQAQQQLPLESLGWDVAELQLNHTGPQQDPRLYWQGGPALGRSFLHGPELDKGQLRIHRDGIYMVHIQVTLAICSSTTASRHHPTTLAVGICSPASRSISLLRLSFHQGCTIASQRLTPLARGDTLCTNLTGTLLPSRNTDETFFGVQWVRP
Nature of the assay: Biacore; recombinant human CD70 on CM5 chip; Fab injected. Here is the method: Off-rates of the purified llama-derived anti-CD70 blocking Fabs were determined using the Biacore. Recombinant human CD70 was immobilized on a CM5 Biacore chip. The immobilization was performed in accordance with a method provided by Biacore and by using the NHS/EDC kit (Biacore AB): after activation of the chip, a solution of 50 μg/ml of recombinant CD70 in 10 mM acetate buffer with pH of 5 was prepared and 1 μl of this solution (50ng) was injected resulting in a surface density of approximately 1000 RU.
Fabs for the CD70 mAbs ARGX-110, MDX2H5 and SGN70 were prepared by […] digestion (SGN70 and MDX69A7 are described elsewhere herein, MDX2H5, also referred to as MDX1411, is described in WO2008/074004 FIGS. 1A and 1B). Fabs, at a concentration of approximately 100-400 μg/ml, were diluted 6-fold in hepes-buffered saline (0.1M Hepes, 1.5M NaCl, 30 mM EDTA, 0.5% v/v surfactant P20). They were injected (30 μl) and passed through the flow cells at a flow rate of 30 μl/min. After binding of the Fab to CD70, the off-rate was monitored for a period of 10 minutes. After the dissociation, the flow cell surfaces were regenerated by injecting 5 μl of 10 mM NaOH. Sometimes multiple injections of NaOH were needed to regenerate the surfaces depending on the affinity of the Fabs. Off-rate analysis was done by applying the BIAevaluation software. First, the sensogram of the blank runs were subtracted from those obtained with the coated flow cell. […] Moreover, the off-rate of CD27 for CD70 was determined as well.

In assay [3] the target is T2, recombinant human CD70 (Flag-TNC-CD70). Put plainly: inhibition ELISA: Flag-TNC-CD70 captured by anti-Flag mAb, Fab titrated, remaining binding of CD27-Fc detected. The protocol: (§1) From selected phage transfected into TG1, individual colonies were picked randomly for growth in 96 well plates. After IPTG induction according to standard protocols periplasmic fractions (penis) containing Fabs were prepared. […] In this assay, Flag-TNC-CD70 is captured by an anti-Flag mAb and binding of CD27-Fc is detected via a biotinylated anti-CD27 mAb and strep-HRP in the absence or presence of CD70 Fabs (FIGS. 2 and 3) or CD70 mAbs (FIG. 4). In FIG. 2B it can be seen that 27B3, which has an identical VH as 9D1, but contains a somewhat different light chain, seems to block binding of CD27 to CD70 more efficiently, which was in line with the better off rate of this Fab as measured on Biacore (data not shown). Table 3 indicates the blocking potency (expressed as IC50) for the various llama-human chimeric mAbs tested in the CD70 inhibition ELISA. […] FIG. 3 is a composite of an experiment testing llama CD70 Fabs for blocking activity (in the inhibition ELISA, see white bars) and for CD70 binding (binding ELISA, black bars). For the binding ELISA, Flag-TNC-CD70 is captured by an anti-Flag mAb and binding of the Fabs is detected using an anti-myc-HRP mAb, which recognizes the MYC tag fused to the C-terminus of the Fd fragment. For comparison purposes, known monoclonal antibodies to CD70 (SGN70 described in US 2010/0129362 A1, clone 1F6; and MDX69A7 described in WO2008/074004 FIGS. 5A and 5B) were tested in parallel. […] Of interest is clone 59D10, which as Fab has no blocking activity, but when converted into a chimeric IgG was antagonistic (see Table 3). Amino acid sequences of the VH and VL domains of binding and blocking llama-derived Fab clones are shown elsewhere herein (Tables 6-9).
For orientation: An ELISA detects its analyte on a solid surface through an enzyme-linked reagent.

The target is the same in assay [4]. Put plainly: inhibition ELISA; Flag-TNC-CD70 captured by anti-Flag mAb; competitor CD27-Fc. Here is the method: as §1
The target of assay [5] is T3, human CD70 expressed on the surface of cells (human, UniProt P32970 1-193).
T3 sequence (looked up): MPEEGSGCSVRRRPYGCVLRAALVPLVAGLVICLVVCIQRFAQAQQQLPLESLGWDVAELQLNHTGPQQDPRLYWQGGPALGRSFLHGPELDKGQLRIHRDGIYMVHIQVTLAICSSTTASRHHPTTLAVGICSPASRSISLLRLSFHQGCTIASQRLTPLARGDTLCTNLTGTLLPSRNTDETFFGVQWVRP
Put plainly: cell-based or functional assay.

Broadly, the koff is a measure of how fast the partners let go of each other. For orientation: IC50 means the point on the concentration scale where inhibition reaches its midpoint.

B1: 9D1 Fab (Fab, V domains shown)
VH: EVQLVESGGGLVQPGGSLRLSCAASGFTFSVYYMNWVRQAPGKGLEWVSDINNEGGTTYYADSVKGRFTISRDNAKNTLTLQMNSLKPEDTALYYCVRDAGYSNHVPIFDSWGQGTQVIVAS
VL: QAVVTQEPSLSVSPGGTVTLTCGLSSGSVTSSHYPGWYQQTPGQAPRLLIFNTNSRHSGVPSRFSGSISGNKAALTITGAQPEDEADYYCALLNIDDGSTMFGGGTHLTVLG
notes: Llama-derived Fab
As for B1, the off-rate (koff) in assay [1] amounted to 0.0002 s⁻¹; in assay [2], 0.00048 s⁻¹. For the same molecule, the “IC50 (read off the curve)” value in assay [3] was approximately 0.2 µg/mL.

B2: 24F2 Fab (Fab, V domains shown)
VH: EVQLVESGGGLVQPGGSLRLSCAASGFTFSVYYMNWVRQAPGKGLEWVSDINNEGGTTYYADSVKGRFTISRDNAKNTLTLQMNSLKPEDTALYYCVRDAGYSNHVPIFDSWGQGTQVIVAS
VL: QSALTQPSAVSVSLGQTARITCRGDTLRNYHANWYRQKPGQAPVLVIYGDDIRPSGIPERFSGSRLGGTATLTVSGAQAEDEADYYCQSSDSSGYRVVFGGGTKLTVLG
notes: Llama-derived Fab
As for B2, the koff in assay [2] was 0.00016 s⁻¹. Besides, the “IC50 (read off the curve)” value in assay [3] is approximately 0.04 µg/mL.

B3: 24B6 chimeric llama-human mAb (antibody, human IgG1, V domains shown)
VH: EVQLQESGGGVVQPGGSLRLSCAASGFTFDDYAMSWVRQAPGKGLEWVSSIYMYDSSTYYADSVKGRFTISTDNAKNTVYLQMNSLKSEDTAVYYCAKDINRSYGSSWSHFGPIFSSWGQGTQVTVSS
VL: QPVLTQPSAVSVSLGQTARITCQGGYYTHWYQQKPGQAPVLVIYINNNRPSGIPERFSGSISGNTATLTISGAQVEDEADYYCQSGSSSTIPVFGGGTKLTVLG
With B3, the IC50 in assay [4] turned out to be 0.42 µg/mL.

B4: 9E1 Fab (Fab, V domains shown)
VH: EVQLQESGGGVVQPGGSLRLSCAASGFTFDDYAMSWVRQAPGKGLEWVSSIYMYDSSTYYADSVKGRFTISTDNAKNTVYLQMNSLKSEDTAVYYCAKDINRSYGSSWSHFGPIFSSWGQGTQVTVSS
VL: QAVVTQEPSLSVSPGGTVTLTCGLTSGSVTSSNYPDWYQQTPGQAPRLLIYNTNSRHSGVPSRFSGSISGNKAALTITGAQPEDEADYYCNLYMGSGGSKVFGGGTKLTVLG
notes: Llama-derived Fab
Take B4: the koff in assay [1] was 0.0002 s⁻¹; in assay [2], 0.00019 s⁻¹.

B5: 24B6 Fab (Fab, V domains shown)
VH: EVQLQESGGGVVQPGGSLRLSCAASGFTFDDYAMSWVRQAPGKGLEWVSSIYMYDSSTYYADSVKGRFTISTDNAKNTVYLQMNSLKSEDTAVYYCAKDINRSYGSSWSHFGPIFSSWGQGTQVTVSS
VL: QPVLTQPSAVSVSLGQTARITCQGGYYTHWYQQKPGQAPVLVIYINNNRPSGIPERFSGSISGNTATLTISGAQVEDEADYYCQSGSSSTIPVFGGGTKLTVLG
notes: Llama-derived Fab
As for B5, in assay [2], the koff is 0.0001 s⁻¹. In addition, in assay [3], the “IC50 (read off the curve)” value is approximately 0.04 µg/mL.

B6: 19G10 Fab (Fab, V domains shown)
VH: EVQLQESGGGVVQPGGSLRLSCAASGFTFDDYAMSWVRQAPGKGLEWVSSIYMYDSSTYYADSVKGRFTISTDNAKNTVYLQMNSLKSEDTAVYYCAKDINRSYGSSWSHFGPIFSSWGQGTQVTVSS
VL: NFMLTQPSAVSVSLGQTARITCQGGYYTHWYQQKPGQAPVLVIYVNNNRPSGIPERFSGSSSGNTATLTISGAQAEDEAAYYCQSGSSSTIPVFGGGTKLTVLG
notes: Llama-derived Fab
Turning to B6, the koff in assay [2] was 8e-05 s⁻¹. The “IC50 (read off the curve)” value in assay [3] was approximately 0.04 µg/mL.

B7: 5B2 chimeric llama-human mAb (antibody, human IgG1, V domains shown)
VH: QVQLVESGGDLVQPGGSLRLSCAASGFTVSNPAMSWVRQAPGKGLEWVSEITNYGYNRYYADSVKGRFTISTDNAKNTLYLQMNSLRSEDSAVYYCTASLGLEYGYGDWGQGTQVTVSS
VL: QSALTQPPSVSGTLGKTLTISCAGTSSDVGYGNYVSWYQQLPGTAPKLLIYRVSTRASGMPDRFSGSKSGNTASLTISGLQSEDEADYYCASYTTNNKPVFGGGTHLTVLG
On to B7, for which the “IC50 (ng/ml), IL-8 secretion in Raji / HT1080-CD27 co-culture assay” value in assay [5] stood at 19 ng/mL. In addition, the IC50 in assay [4] came out at 0.092 µg/mL.

B8: 5B2 (Fab, V domains shown)
VH: QVQLVESGGDLVQPGGSLRLSCAASGFTVSNPAMSWVRQAPGKGLEWVSEITNYGYNRYYADSVKGRFTISTDNAKNTLYLQMNSLRSEDSAVYYCTASLGLEYGYGDWGQGTQVTVSS
VL: QSALTQPPSVSGTLGKTLTISCAGTSSDVGYGNYVSWYQQLPGTAPKLLIYRVSTRASGMPDRFSGSKSGNTASLTISGLQSEDEADYYCASYTTNNKPVFGGGTHLTVLG
notes: also called 5B2 Fab
Consider B8, for which, in assay [3], the “IC50 (read off the curve)” value is approximately 2 nM.

B9: 57B6 Fab (Fab, V domains shown)
VH: QLQLVESGGGLVQPGGSLRLSCAASGFSFSHYAMSWVRQAPGKGLEWVSGDNTYDGGTRYQDSVKGRFTISRDNGKNTLYLQMNSLKPEDTAVYYCAKDTGRGIMGEYGMDYWGKGTLVTVSS
VL: QTVVTQEPSLSVSPGGTVTLTCGLKSGSVTSSNYPAWYQQTPGQAPRLLIYNTNSRHSGVPSRFSGSISGNKAALTITGAQPEDEADYYCALYMGSGSANAMFGGGTHLTVLG
notes: Llama-derived Fab
On to B9, for which the figures for the koff in assay [1] and in assay [2] were 4e-05 s⁻¹ and 0.0001 s⁻¹, respectively.

B10: 1C2 Fab (Fab, V domains shown)
VH: ELQVVESGGGLVQPGGSLRLSCAASGFTLSNYWMHWVRQAPRKGLEWVSTISTDNSRTYYADSVKGRFTISRDHAKNTLILQMNSLKSEDTAVYYCIRGSDYEHWGQGTQVTVSS
VL: QTVVTQEPSLSVSPGGTVTLTCGLSSGSVTTTNYPGWFQQTPGQAPRTLIYSTSSRHSGVPSRFSGSISGNKAALTITGAQPEDEADYYCALEEIGSYTYMFGGGTHLTVLG
notes: Llama-derived Fab
Turning to B10, in assay [1], the koff worked out at 0.00032 s⁻¹.

B11: 4D2 Fab (Fab, V domains shown)
VH: QVQLQESGPGLVKPSQTLSLACTVSGGSITTSYYYWSWIRQPPGKGLEWMGAIGSRGSTYYSPSLKTRTSISRDTSKNQFTLQLSSVTPEDTAVYYCARVTGEITYNSGSYYYTLNLFDYWGQGTQVTVSS
VL: QSVLTQPPSLSASPGSSVRLTCTLSSGNSVGNYDISWYQQKAGSPPRYLLYYYSDSYKNQGSGVPSRFSGSKDPSANAGLLLISGLQAEDEADYYCSVSNSGTYKPVFGGGSKLTVLG
notes: Llama-derived Fab
For B11, the koff was determined as 0.00029 s⁻¹ in assay [1] and 0.00033 s⁻¹ in assay [2]. Besides, in assay [3], the “IC50 (read off the curve)” value was approximately 1 nM.

B12: 9B2 chimeric llama-human mAb (antibody, human IgG1, V domains shown)
VH: QLQVVESGGGLMQPGGSLRLSCAASGFTFSGSAMSWVRQAPGKGLEWVSSIYSHSMYTYYADSVKSRFTISTDNAKNTLYLQMNSLKPDDTAVYYCAASSDYEGLFVSWGQGTQVTVSS
VL: QAVLTQPPSLSASPGSSVRLTCTLNSANSVGSYDISWYQQKAGSPPRYLLYYYSDSLSHQGSGVPSRFSGSTDASANAGLLLISGLQPEDEADYYCSAYNRGSHVFGGGTKLTVLG
In the case of B12, the “IC50 (ng/ml), IL-8 secretion in Raji / HT1080-CD27 co-culture assay” value in assay [5] is 213 ng/mL. Besides, in assay [4], the IC50 came out at 0.126 µg/mL.
